9 molecules from patent US20240287169A1 (AULOS BIOSCIENCE, published 2024) can be followed below.

Changes are numbered by the printed parent chain. Names may count otherwise.

Assay [1] addresses T1, Non-alpha-IL-2 (naIL-2, hIL-2/hCD25 conjugate) (human, UniProt P01589 22-240; P60568 21-153).
T1 construct: Expressed in Expi293 cells; also called IL-2-CD25 conjugate; hIL-2/CD25 conjugated cytokine
Briefly: SPR, biotinylated hCD25 on the chip, naIL-2 injected. (SPR reads the build-up and loss of mass on a sensor chip optically.)

Assay [2] has as its target T2, Human IL-2 (human, UniProt P60568 21-153).
T2 construct: Soluble analyte in the SPR experiments; also called hIL-2; recombinant human IL-2
Briefly: SPR, multi-cycle, antibody captured, hIL-2 analyte. From the text:
(§1) The SPR analysis was done on Biacore […] (GE healthcare, USA) on CM5 chips (cat:br10005-30, GE healthcare, USA). The chip was crosslinked with primary capture Ab against human IgG (Cat: br-1008-39, GE healthcare, USA) or primary capture antibody against mouse IgG (Cat: BR-1008-38, GE healthcare, USA) to a target of 8000RU. After cross-linking of the primary Ab, the mouse and human tested antibodies were immobilized on the primary Ab to a target of approximately additional 500RU. […] At the end of each cycle the analyte and tested antibody were stripped from the chip using 3M MgCl₂ and new tested Ab was loaded on the chip as described above. When indicated, instead of stripping the antibodies, kinetics was determined by injecting series of analyte concentrations in one cycle by the Single-cycle kinetics method. Binding kinetics were determined by the 1:1 Binding model using the Biacore T200 evaluation software.

Assay [3] deals with T2, Human IL-2. Briefly: SPR, single-cycle, antibody captured, hIL-2 analyte.
Excerpt: as §1

Assay [4] concerns the target T2, Human IL-2. Briefly: SPR, antibody captured on anti-human IgG CM5 chip, human IL-2 as analyte, single-cycle, 1:1 binding model.
Excerpt: as §1

The target of another assay is T3, cynomolgus monkey IL-2 (cynomolgus monkey, UniProt Q29615 21-154).
T3 construct: also called cIL-2
T3 sequence (Q29615 21-154 limits assumed): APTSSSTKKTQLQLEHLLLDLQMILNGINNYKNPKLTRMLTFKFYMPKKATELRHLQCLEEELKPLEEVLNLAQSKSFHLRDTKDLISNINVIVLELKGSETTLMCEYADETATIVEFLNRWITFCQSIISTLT
Briefly: SPR, multi-cycle, antibody captured, cynomolgus IL-2 analyte.
Excerpt: as §1

Assay [5] addresses T2, Human IL-2. Briefly: SPR, antibody captured on anti-human IgG CM5 chip, human IL-2 as analyte, multi-cycle, 1:1 binding model.
Excerpt: as §1

Assay [6] has as its target T2, Human IL-2. Briefly: SPR Biacore T200, antibody captured, hIL-2 analyte.
Excerpt: as §1

Assay [7] deals with T4, Mouse IL-2 (mouse, UniProt P04351 21-169).
T4 construct: Soluble analyte in SPR; also called mIL-2
T4 sequence (looked up): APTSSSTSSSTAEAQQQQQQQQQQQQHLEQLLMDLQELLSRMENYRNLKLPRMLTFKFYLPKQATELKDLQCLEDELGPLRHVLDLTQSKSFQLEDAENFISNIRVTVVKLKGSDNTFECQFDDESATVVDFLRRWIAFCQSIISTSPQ
Briefly: SPR Biacore T200, antibody captured, mIL-2 analyte.
Excerpt: as §1

Assay [8] addresses T4, Mouse IL-2. Briefly: SPR Biacore, antibody captured, mIL-2 analyte.
Excerpt: as §1

T2 sequence (P60568 21-153 limits assumed): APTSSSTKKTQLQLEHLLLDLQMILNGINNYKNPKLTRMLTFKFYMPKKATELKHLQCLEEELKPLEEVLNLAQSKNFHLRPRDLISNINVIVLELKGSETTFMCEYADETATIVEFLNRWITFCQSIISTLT

B1: biotinylated human CD25 (receptor, UniProt P01589 22-213, looked up)
chain: ELCDDDPPEIPHATFKAMAYKEGTMLNCECKRGFRRIKSGSLYMLCTGNSSHSSWDNQCQCTSSATRNTTKQVTPQPEEQKERKTTEMQSPMQPVDQASLPGHCREPPPWENEATERIYHFVVGQMVYYQCVQGYRALHRGPAESVCKMTHGKTRWTQPQLICTGEMETSQFPGEEKPQASPEGRPESETSC
modifications: biotinylated
notes: Captured on a streptavidin-coated chip; also called biotinylated hCD25
B1: the binding result in assay [1] is “no binding (tested: 1 uM)”.

B2: BDG17.066 (antibody, human IgG1, kappa, L234A L235A, V domains shown)
VH: QVQLVQSGAEVKKPGSSVKVSCKASGYSITDSLIHWVRQAPGQGLEWMGWIDPEDGEINYAQKFQGRVTLTADTSTSTAYMELSSLRSEDTAVYYCARSLDSYPIDPFAYWGQGTLVTVSS
VL: DIVMTQSPDSLAVSLGERATINCKSSQSLLRNGNQQNYLAWYQQKPGQPPKLLIYYASTGQSGVPDRFSGSGSGTDFTLTISSLQAEDVAVYYCQQHYVTPPTFGAGTKVEIKR
notes: Humanized IgG1 with the LALA mutation (L234A, L235A)
For orientation: Kd means the concentration at which binding is half-saturated. In general, koff refers to a measure of how fast the partners let go of each other. As a reminder, the kon is the second-order rate constant of association. On to B2, for which, in the assay with Human IL-2 [2], the dissociation constant Kd amounted to 0.0515 nM, the koff was determined as 0.000785 s⁻¹ and the kon worked out at 1.52e+07 M⁻¹ s⁻¹.

B3: BDG17.053 (antibody, V domains shown)
VH: B2 VH with S32Y, I58T, S102Y, Y103D, D106Y
VL: DIVMTQSPDSLAVSLGERATINCKSSQSLLRNGNQKNYLAWYQQKPGQPPKLLIYYASTGQSGVPDRFSGSGSGTDFTLTISSLQAEDVAVYYCQQHYITPPTFGAGTKVEIK
notes: Humanized IgG1
In the assay with Human IL-2 [3], B3 had a Kd of 0.0643 nM, a koff of 0.00254 s⁻¹ and a kon of 3.96e+07 M⁻¹ s⁻¹. In the assay with Human IL-2 [4], this molecule came in with a kon of 3.39e+07 M⁻¹ s⁻¹.

B4: BDG17.067 (antibody, human IgG1, kappa, L234A L235A, V domains shown)
VH: B2 VH with S32Y, E57V, I58T, N59A, S102Y, Y103D, D106Y
VL: B2 VL with Q36K
notes: Humanized IgG1 with the LALA mutation; also called BDG17.0067
As for B4, in the assay with Human IL-2 [2], the Kd was 0.011 nM, the dissociation rate constant (koff) is 0.000372 s⁻¹ and the kon is 3.37e+07 M⁻¹ s⁻¹. In the assay with cynomolgus monkey IL-2, this molecule registered a Kd of 0.014 nM, a koff of 0.000398 s⁻¹ and a kon of 2.83e+07 M⁻¹ s⁻¹.

B5: BDG17.038 (antibody, V domains shown)
VH: B2 VH
VL: B3 VL with K36Q, I99V
notes: Humanized IgG1
Turning to B5, in the assay with Human IL-2 [2], binding was put at a Kd of 0.0202 nM, the dissociation rate constant (koff) came to 0.0002 s⁻¹ and the kon was found to be 1.41e+07 M⁻¹ s⁻¹. Besides, in the assay with Human IL-2 [5], the koff amounted to 0.0002 s⁻¹.

B6: BDG17.043 (antibody, V domains shown)
VH: B2 VH with S32Y, E57V, I58T, N59A, S102Y, Y103D, D106Y
VL: B3 VL with I99V
notes: Humanized IgG1; also called BDG017.043
Take B6: in the assay with Human IL-2 [2], the affinity, expressed as Kd, was 0.0482 nM and the koff was found to be 0.000222 s⁻¹. In the assay with Human IL-2 [5], the Kd is 0.0478 nM, the dissociation rate constant (koff) came out at 0.000266 s⁻¹ and the kon was found to be 3.39e+07 M⁻¹ s⁻¹.

B7: BDG17.054 (antibody, V domains shown)
VH: B2 VH with S32D, I58T, Y103T, P104W, D106Y
VL: B3 VL with N32R, Y38H, Y56D, Q95L, H97S
notes: Humanized IgG1 without the LALA mutation
In the case of B7, in the assay with Human IL-2 [3], binding was put at a Kd of 0.0127 nM, the off-rate (koff) came out at 0.0007 s⁻¹ and the kon turned out to be 5.5e+07 M⁻¹ s⁻¹.

B8: BDG17.023 IgG (antibody, V domains shown)
VH: EIQLQQSGPELRRPGSSVKLSCKASGYNITDYLIHWVRHRPEHGLEWIGWIDPEDGETRYAQKFQSKATLTADTSSNAAYMQLSSLTPEDTATYFCARQLDSTYIYPFAYWGQGTLVTVSS
VL: DIVMTQSPFSLAVSEGEMVTINCKSSQSLLRSGNQKNYLAWYQQKPGQSPKLLIYYASTGQSGVPDRFIGSGSGTDFTLTISDVQAEDLADYYCLQHYITPPTFGAGTKLELK
notes: Human chimeric IgG1 with rat Fv
Consider B8, for which, in the assay with Human IL-2 [6], the Kd came out at 0.0818 nM, the koff turned out to be 0.00107 s⁻¹ and the kon was 1.31e+07 M⁻¹ s⁻¹. In the assay with Mouse IL-2 [7], the Kd turned out to be 2460 nM, the koff came to 0.0979 s⁻¹ and the kon was determined as 39800 M⁻¹ s⁻¹.

B9: BDG JES6.1RMC (17.006) (antibody, V domains shown)
VH: B8 VH with Q99S
VL: B8 VL with R31S, T100S
notes: Rat Fv with a mouse IgG2a constant region
Take B9: in the assay with Mouse IL-2 [8], binding was characterised by a dissociation constant (Kd) of 0.13 nM, the koff is 6.3e-05 s⁻¹ and the on-rate constant (kon) turned out to be 480000 M⁻¹ s⁻¹.
